Assay results: US9999664B2, “HIV-1 gp120 mini V3 loop and uses thereof” (The Scripps Research Institute, priority 2011, dated 2018)

Tests used:
[1] = target: HIV-1YU2 Env on the surface of transfected 293T cells (Human immunodeficiency virus 1, strain YU2); assay: flow cytometry on HIV-1YU2 Env-transfected 293T cells, MFI
[2] = target: HIV-1 JR-FL envelope (Env) on pseudovirus (HIV-1 JR-FL)
[3] = target: HIV-1 JRCSF envelope N301A on pseudovirus (HIV-1 JR-CSF) (UniProt P20871); assay: cell-based or functional assay
[4] = target: HIV-1 BaL envelope N301A on pseudovirus (HIV-1 BaL); assay: cell-based or functional assay
[5] = target: HIV-1 SF162 envelope N332A on pseudovirus (HIV-1 SF162) (UniProt P19550); assay: cell-based or functional assay
[6] = target: HIV-1 92RW020 envelope N332A on pseudovirus (HIV-1 92RW020); assay: cell-based or functional assay
[7] = target: HIV-1 JRCSF envelope N332A on pseudovirus (HIV-1 JR-CSF) (UniProt P20871); assay: cell-based or functional assay
[8] = target: HIV-1 ADA envelope N301A on pseudovirus (HIV-1 ADA); assay: cell-based or functional assay
[9] = target: HIV-1 BaL envelope N332A on pseudovirus (HIV-1 BaL); assay: cell-based or functional assay
[10] = target: HIV-1 JRFL envelope N301A on pseudovirus (HIV-1 JR-FL); assay: cell-based or functional assay
[11] = target: HIV-1 JRFL envelope N332A on pseudovirus (HIV-1 JR-FL); assay: cell-based or functional assay
[12] = target: HIV-1 ADA envelope N332A on pseudovirus (HIV-1 ADA); assay: cell-based or functional assay
[13] = target: HIV-1 SF162 envelope N301A on pseudovirus (HIV-1 SF162) (UniProt P19550); assay: cell-based or functional assay
[14] = target: engineered outer domain mini-V3 (eODmV3), glycosylated gp120 outer domain construct (HIV-1 (base strain HxB2; mini-V3 based on JR-FL)); assay: ELISA of IgG PGT 128 (FIG. 13)
[15] = target: HIV-1JR-FL Env trimers on the surface of transfected 293T cells (Human immunodeficiency virus 1, strain JR-FL); assay: JR-FL cell surface binding, flow cytometry on transfected 293T cells
[16] = target: gp120 (ELISA antigen of FIG. 3, strain not stated) (HIV-1, strain not stated); assay: ELISA on coated gp120, absorbance at 405 nm
[17] = target: HIV-1 JR-FL envelope (Env) on pseudovirus (HIV-1 JR-FL); remark: listed apart in the source
JR-FL core + mini-V3 = assay: ELISA on coated antigen, OD 405

| Substance | EC50 (read off the curve) [1] [nM] | IC50 (JR-FL neutralization) [2] [nM] | fold change in IC50 of variant envelope compared to WT envelope [3] [fold] | fold change in IC50 of variant envelope compared to WT envelope [4] [fold] | fold change in IC50 of variant envelope compared to WT envelope [5] [fold] | fold change in IC50 of variant envelope compared to WT envelope [6] [fold] | fold change in IC50 of variant envelope compared to WT envelope [7] [fold] | fold change in IC50 of variant envelope compared to WT envelope [8] [fold] | fold change in IC50 of variant envelope compared to WT envelope [9] [fold] | fold change in IC50 of variant envelope compared to WT envelope [10] [fold] | fold change in IC50 of variant envelope compared to WT envelope [11] [fold] | fold change in IC50 of variant envelope compared to WT envelope [12] [fold] | fold change in IC50 of variant envelope compared to WT envelope [13] [fold] | apparent affinity [14] [nM] | EC50 [15] [nM] | EC50 (read off the curve) [16] [µg/mL] | IC50 (read off the curve; HIV-1JR-FL pseudovirus) [17] [µg/mL] | EC50 (read off the curve) (JR-FL core + mini-V3) [nM] |
| --- | --- | --- | --- | --- | --- | --- | --- | --- | --- | --- | --- | --- | --- | --- | --- | --- | --- | --- |
| PGT 128 IgG (antibody) | 8 | 0.09 | 10.7 | > 200 | > 200 | 1.6 | 1.4 | > 200 | > 200 | > 200 | > 200 | > 200 | > 200 | 46 | 2.8 | 0.04 | 0.01 | 2 |
| PGT 127 IgG (antibody) | – | 0.18 | > 250 | > 200 | > 200 | 6.3 | > 200 | > 200 | > 200 | > 200 | > 200 | > 200 | > 200 | – | 3.1 | 0.08 | 0.02 | – |
